The results in this text go back to patent US11053304 (CENTIVAX, dated 2021).

As usually defined, the Kd is a measure of binding affinity in units of concentration. A higher Kd goes with a looser complex. By koff is commonly meant a measure of how fast the partners let go of each other. What is called kon is the rate constant with which the complex forms. Lower therefore signals slow association.

Read-outs that look alike come from different tables or passages of the source.

What all share (test): SPR, scFv captured via anti-V5, RBD as analyte
A general note: SPR reads the build-up and loss of mass on a sensor chip optically.

Assay [1] addresses T1, SARS-CoV-2 Receptor Binding Domain (RBD) protein (SARS-CoV-2, UniProt P0DTC2 319-541).
Assay [2] concerns the target SARS-CoV-1 Receptor Binding Domain (RBD) protein (SARS-CoV-1, UniProt P59594 306-527).
Assay [3] concerns the target T1, SARS-CoV-2 Receptor Binding Domain …. The source holds these as a separate data set.
Assay [4] addresses MERS Receptor Binding Domain (RBD) protein (MERS coronavirus, UniProt K9N5Q8 367-606).

B1: COVID19_P08_D04 (scFv, V domains shown)
VH: EVQLVESGGGLVQPGGSLRLSCAASGFIFSSYAMNWVRQAPGKGLEWVSGISGSGGGAYYADSVKGRFTISRDNSKNTLYLQMNSLRAEDTAVYYCVTNLDNSRDYFPHYFHDMDVWGQGTLVTVSS
VL: DIVMTQSPLSLPVTPGEPASISCRSSQSLLQSNGYNYMDWYLQKPGQSPQLLIYLTSNRAAGVPDRFSGSGSGTDFTLKISRVEAEDVGVYYCQQSYGPPLTFGGGTKVEIKR
Consider B1, for which, in assay [1], the dissociation constant (Kd) worked out at 0.86 nM, the dissociation rate constant (koff) is 5.7e-05 s⁻¹ and the kon amounted to 66000 M⁻¹ s⁻¹. The binding result in assay [2] was “no binding (tested: up to 300 nM)”. In addition, the Kd in assay [3] was less than 50 nM. The binding result in assay [4] is “no binding (tested: up to 300 nM)”.

B2: COVID19_P07_H01 (scFv, V domains shown)
VH: EVQLVESGGGLVQPGGSLRLSCAASGFTFRSYAMHWVRQAPGKGLEWVAVISSDGRNKFYADSVKGRFTISRDNSKNTLYLQMNSLRAEDTAVYYCVTNMDNSRDYFPHYFHDMDVWGQGTLVTVSS
VL: DIVMTQSPLSLPVTPGEPASISCRSSQSLLHSNGNNYMDWYLQKPGQSPQLLIYLASQRASGVPDRFSGSGSGTDFTLKISRVEAEDVGVYYCMQALQRPLTFGGGTKVEIKR
Consider B2, for which the Kd in assay [1] is 2.9 nM; in assay [3] it was less than 50 nM. The molecule also gave an off-rate (koff) in assay [1] of 5.7e-05 s⁻¹. In addition, the kon in assay [1] is 19900 M⁻¹ s⁻¹. The binding result in assay [2] and in assay [4] was “no binding (tested: up to 300 nM)” in each case.

B3: COVID19_P20_C11 (scFv, V domains shown)
VH: EVQLVESGGGLVQPGGSLRLSCAASGFTFSSYSMNWVRQAPGKGLEWVSGISGSGDRTYYADSVKGRFTISRDNSKNTLYLQMNSLRAEDTAVYYCSMQRDNSRDYFPHYFHDMDVWGQGTLVTVSS
VL: DIVMTQSPLSLPVTPGEPASISCRSSQSLLYSDGDTYLDWYLQKPGQSPQLLIYLGSIRAPGVPDRFSGSGSGTDFTLKISRVEAEDVGVYYCMQSVQTPWTFGGGTKVEIKR
B3: in assay [1], the Kd came to 2.94 nM, the koff worked out at 0.000607 s⁻¹ and the kon amounted to 207000 M⁻¹ s⁻¹. For the same molecule, the binding result in assay [2] was “no binding (tested: up to 300 nM)”. This molecule also gave a Kd in assay [3] of less than 50 nM. The binding result in assay [4] is recorded as “no binding (tested: up to 300 nM)”.

B4: COVID19_P08_D09 (scFv, V domains shown)
VH: EVQLVESGGGLVQPGGSLRLSCAASGFTFSTYAMHWVRQAPGKGLEWVAVISYDGNYQYYADSVKGRFTISRDNSKNTLYLQMNSLRAEDTAVYYCVTNLDNSRDYFPHYFHDMDVWGQGTLVTVSS
VL: not shown
Regarding B4, in assay [1], binding was put at a Kd of 1.5 nM, the koff worked out at 5.7e-05 s⁻¹ and the kon worked out at 38000 M⁻¹ s⁻¹. Also, the binding result in assay [2] was “no binding (tested: up to 300 nM)”. The Kd in assay [3] was less than 50 nM. Further, the binding result in assay [4] is “no binding (tested: up to 300 nM)”.

B5: COVID19_P08_G02 (scFv, V domains shown)
VH: EVQLVESGGGLVQPGGSLRLSCAASGFTFSSYGMHWIRQAPGKGLEWVSAVSASGDRTHYADSVKGRFTISRDNSKNTLYLQMNSLRAEDTAVYYCVTNLDNSRDYFPHYFHDMDVWGQGTLVTVSS
VL: DIVMTQSPLSLPVTPGEPASISCRSSQSLVHSDGYTYLNWYLQKPGQSPQLLIYVGSYRASGVPDRFSGSGSGTDFTLKISRVEAEDVGVYYCMQASQWPPTFGGGTKVEIKR
For B5, in assay [1], the Kd worked out at 2.71 nM, the koff was determined as 0.0001 s⁻¹ and the kon was determined as 38000 M⁻¹ s⁻¹. Further, the binding result in assay [2] is recorded as “no binding (tested: up to 300 nM)”. The Kd in assay [3] is less than 50 nM. Besides, in assay [4], the binding result was “no binding (tested: up to 300 nM)”.

B6: COVID19_P19_B04 (scFv, V domains shown)
VH: EVQLVESGGGLVQPGGSLRLSCAASGITFNNYAMTWVRQAPGKGLEWVSGISGSGGSTYYADSVKGRFTISRDNSRNTLYLQMNSLRAEDTAVYYCVTQRDNPVDYFPHYFHDMDVWGQGTLVTVSS
VL: DIVMTQSPLSLPVTPGEPASISCRSSQSLLYSDGDTYLDWYLQKPGQSPQLLIYLGSIRAPGVPDRFSGSGSGTDFTLKISRVEAEDVGVYYCMQALQVPWTFGGGTKVEIKR
In the case of B6, in assay [1], the Kd worked out at 22 nM, the koff turned out to be 0.00795 s⁻¹ and the kon was found to be 361000 M⁻¹ s⁻¹. Further, the binding result in assay [2] is reported as “no binding (tested: up to 300 nM)”. In addition, the Kd in assay [3] is less than 50 nM. The binding result in assay [4] was “no binding (tested: up to 300 nM)”.

B7: COVID19_P08_G07 (scFv, V domains shown)
VH: EVQLVESGGGLVQPGGSLRLSCAASGFTFSTYGMHWVRQAPGKGLEWVSTISGNGVSTSYADSVKGRFTISRDNSKNTLYLQMNSLRAEDTAVYYCVTNMDNSRDYFPHYFHDMDVWGQGTLVTVSS
VL: DIVMTQSPLSLPVTPGEPASISCRSSQSLVYSDGYTYLNWYLQKPGQSPQLLIYQVSNRASGVPDRFSGSGSGTDFTLKISRVEAEDVGVYYCMQALQTPALTFGGGTKVEIKR
Regarding B7, the figures for the Kd in assay [1] and in assay [3] were 10.6 nM and less than 50 nM, respectively. In assay [1], this molecule registered a koff of 0.00072 s⁻¹. Also, the kon in assay [1] worked out at 68000 M⁻¹ s⁻¹. Further, the binding result in assay [2] and in assay [4] was “no binding (tested: up to 300 nM)” throughout.

B8: COVID19_P08_C08 (scFv, V domains shown)
VH: EVQLVESGGGLVQPGGSLRLSCAASGFTFRNYAMHWVRQAPGKGLEWVSAVSSSGGSPYYADSVKGRFTISRDNSKNTLYLQMNSLRAEDTAVYYCVTNMDNSRDYFPHYFHDMDVWGQGTLVTVSS
VL: DIVMTQSPLSLPVTPGEPASISCRSSQSLVHSDGDNYLNWYLQKPGQSPQLLIYSGSYRASGVPDRFSGSGSGTDFTLKISRVEAEDVGVYYCMQGTHWPLTFGGGTKVEIKR
In assay [1], B8 returned a Kd of 1.8 nM, a koff of 5.7e-05 s⁻¹ and a kon of 32000 M⁻¹ s⁻¹. Also, the binding result in assay [2] is listed as “no binding (tested: up to 300 nM)”. For the same molecule, the Kd in assay [3] is less than 50 nM. Also, the binding result in assay [4] was “no binding (tested: up to 300 nM)”.

B9: COVID19_P07_F10 (scFv, V domains shown)
VH: EVQLVESGGGLVQPGGSLRLSCAASGFTFSSYGMHWVRQAPGKGLEWVSGVSASGGGPYYADSVKGRFTISRDNSKNTLYLQMNSLRAEDTAVYYCVTNMDNSRDYFPHYFHDMDVWGQGTLVTVSS
VL: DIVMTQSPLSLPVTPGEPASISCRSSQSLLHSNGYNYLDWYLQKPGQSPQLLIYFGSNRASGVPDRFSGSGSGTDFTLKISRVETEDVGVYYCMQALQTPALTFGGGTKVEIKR
In assay [1], B9 registered a Kd of 8.05 nM, a koff of 0.000483 s⁻¹ and a kon of 60000 M⁻¹ s⁻¹. In assay [2], the binding result is “no binding (tested: up to 300 nM)”. For the same molecule, the Kd in assay [3] is less than 50 nM. Further, the binding result in assay [4] is on record as “no binding (tested: up to 300 nM)”.

B10: COVID19_P07_A09 (scFv, V domains shown)
VH: EVQLVESGGGLVQPGGSLRLSCAASGFTFSSYGVHWVRQAPGKGLEWVAVISHDGKKKYYADSVKGRFTISRDNSKNTLYLQMNSLRAEDTAVYYCVTNVDNSRDYFPHYFHDMDVWGQGTLVTVSS
VL: not shown
In assay [1], B10 returned a Kd of 1.5 nM, a koff of 5.7e-05 s⁻¹ and an on-rate constant (kon) of 39100 M⁻¹ s⁻¹. In addition, in assay [2], the binding result was “no binding (tested: up to 300 nM)”. In addition, in assay [3], the Kd is less than 50 nM. Besides, the binding result in assay [4] was “no binding (tested: up to 300 nM)”.
